Data set [1] deals with the molecule itself. The data set is described as follows: electron microscopy.
Data set [2] concerns the molecule itself. Put plainly: fluorescence correlation spectroscopy with photon counting histogram analysis.

By stoichiometry N is commonly meant a count of units in the complex or per binding partner.

B1: Myo2p, heavy chain of fission yeast myosin-II Myo2, in purified "Phosphorylated Myo2" (natural protein, S. pombe, UniProt Q9USI6 1-1526, looked up)
chain: MTEVISNKITAKDGATSLKDIDDKRWVWISDPETAFTKAWIKEDLPDKKYVVRYNNSRDEKIVGEDEIDPVNPAKFDRVNDMAELTYLNEPAVTYNLEQRYLSDQIYTYSGLFLVAVNPYCGLPIYTKDIIQLYKDKTQERKLPHVFAIADLAYNNLLENKENQSILVTGESGAGKTENTKRIIQYLAAIASSTTVGSSQVEEQIIKTNPVLESFGNARTVRNNNSSRFGKFIKVEFSLSGEISNAAIEWYLLEKSRVVHQNEFERNYHVFYQLLSGADTALKNKLLLTDNCNDYRYLKDSVHIIDGVDDKEEFKTLLAAFKTLGFDDKENFDLFNILSIILHMGNIDVGADRSGIARLLNPDEIDKLCHLLGVSPELFSQNLVRPRIKAGHEWVISARSQTQVISSIEALAKAIYERNFGWLVKRLNTSLNHSNAQSYFIGILDIAGFEIFEKNSFEQLCINYTNEKLQQFFNHHMFVLEQEEYMKEEIVWDFIDFGHDLQPTIDLIEKANPIGILSCLDEECVMPKATDATFTSKLDALWRNKSLKYKPFKFADQGFILTHYAADVPYSTEGWLEKNTDPLNENVAKLLAQSTNKHVATLFSDYQETETKTVRGRTKKGLFRTVAQRHKEQLNQLMNQFNSTQPHFIRCIVPNEEKKMHTFNRPLVLGQLRCNGVLEGIRITRAGFPNRLPFNDFRVRYEIMAHLPTGTYVESRRASVMILEELKIDEASYRIGVSKIFFKAGVLAELEERRVATLQRLMTMLQTRIRGFLQRKIFQKRLKDIQAIKLLQANLQVYNEFRTFPWAKLFFNLRPLLSSTQNDKQLKKRDAEIIELKYELKKQQNSKSEVERDLVETNNSLTAVENLLTTERAIALDKEEILRRTQERLANIEDSFSETKQQNENLQRESASLKQINNELESELLEKTSKVETLLSEQNELKEKLSLEEKDLLDTKGELESLRENNATVLSEKAEFNEQCKSLQETIVTKDAELDKLTKYISDYKTEIQEMRLTNQKMNEKSIQQEGSLSESLKRVKKLERENSTLISDVSILKQQKEELSVLKGVQELTINNLEEKVNYLEADVKQLPKLKKELESLNDKDQLYQLQATKNKELEAKVKECLNNIKSLTKELENKEEKCQNLSDASLKYIELQEIHENLLLKVSDLENYKKKYEGLQLDLEGLKDVDTNFQELSKKHRDLTFNHESLLRQSASYKEKLSLASSENKDLSNKVSSLTKQVNELSPKASKVPELERKITNLMHEYSQLGKTFEDEKRKALIASRDNEELRSLKSELESKRKLEVEYQKVLEEVKTTRSLRSEVTLLRNKVADHESIRSKLSEVEMKLVDTRKELNSALDSCKKREAEIHRLKEHRPSGKENNIPAVKTTEPVLKNIPQRKTIFDLQQRNANQALYENLKRDYDRLNLEKHNLEKQVNELKGAEVSPQPTGQSLQHVNLAHAIELKALKDQINSEKAKMFSVQVQYEKREQELQKRIASLEKVNKDSLIDVRALRDRIASLEDELRAA
modifications: phosphoserine at 1444 (largely phosphorylated, LC/MS/MS)
With B1, the “stoichiometry N” value in data set [1] came out at 2.

B2: mEGFP-Myo2 (Myo2 heavy chain with an N-terminal mEGFP tag) (natural protein, S. pombe, UniProt Q9USI6 1-1526, looked up)
chain: B1 chain
B2: in data set [2], the “stoichiometry N” value was 2.

Source of the values: paper PMC5899921 (Cytoskeleton (Hoboken, N.J.), 2017).
